According to patent US20140087995A1 (published 2014):
Values belong to the binder of their own block, whether it stands above or below them. Numbered stars: 1 amine (or outer) side, 2 acyl side, 3 side chain; on linkers, the order of the positions; unused ones are H or OH. Bridge positions count the residues as written; N and C are the ends. Square brackets hold non-standard residues; d marks the D form. Side chains are listed from the residue outwards. Ends that are not written are not given here. * marks the point of attachment. C20 diacid = O=C(O)CCCCCCCCCCCCCCCCCCC(=O)*; γGlu = O=C(O)[C@H](CCC(=O)[*:2])N[*:1]; AEEA = NCCOCCOCC(=O)O

What was measured:
[1] = molecular target: T1, human calcitonin receptor (human, UniProt P30988 25-474); test: SPA competition vs 125I-calcitonin, membranes of BHK cells with human calcitonin receptor (Assay VII)
T1 construct: whole, on cells; Assayed as cell membranes of BHK tk'ts 13 cells stably transfected with the human calcitonin receptor (Assay VII); also called hCTR; hCT
T1 sequence (looked up): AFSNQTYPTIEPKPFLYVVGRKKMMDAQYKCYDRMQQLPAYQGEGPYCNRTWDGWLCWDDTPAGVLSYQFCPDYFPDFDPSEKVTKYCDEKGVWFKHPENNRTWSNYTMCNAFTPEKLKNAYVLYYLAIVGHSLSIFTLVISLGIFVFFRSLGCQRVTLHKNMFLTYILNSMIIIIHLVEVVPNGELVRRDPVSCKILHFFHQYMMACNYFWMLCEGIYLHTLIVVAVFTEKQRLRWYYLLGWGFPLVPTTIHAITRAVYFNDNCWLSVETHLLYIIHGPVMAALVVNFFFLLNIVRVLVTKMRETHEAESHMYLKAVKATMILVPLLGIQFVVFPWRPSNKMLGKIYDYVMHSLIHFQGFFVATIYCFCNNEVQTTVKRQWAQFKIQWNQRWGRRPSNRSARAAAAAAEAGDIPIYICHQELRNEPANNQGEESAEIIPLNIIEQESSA
Summary of the method: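 BHK hCTR membranes 35 ng/μL + SPA beads 0.05 mg/well; buffer 50 mM Hepes pH 7.4, 1 mM CaCl2, 5 mM MgCl₂, 0.1% OA, 0.02% Tween20. 120 min, 25° C., shaking. Scintillation count; IC50 by one-site binding competition.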

[2] = molecular target: T1, human calcitonin receptor; test: IC50 at hCTR divided by IC50 at hAmylin-R (SPA competition assays V and VII)
Summary of the method: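 Scintillation proximity competition binding on cell membranes at 35 ng/μL with SPA beads, in 50 mM Hepes pH 7.4, 1 mM CaCl2, 5 mM MgCl₂, 0.1% OA, 0.02% Tween20. Incubated 120 min at 25° C with shaking. IC₅₀ from one-site competition fit.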

[3] = molecular target: T2, human amylin receptor (amylin 3(a) receptor: human calcitonin receptor with RAMP-3) (human, UniProt P30988 25-474; O60896 24-148); test: SPA competition with 125I-rat amylin on membranes of BHK cells with human calcitonin receptor and RAMP-3 (Assay V)
T2 construct: whole, on cells; Assay used cell membranes of the Amylin 3(a)/CRE-luc BHK cells, not intact cells; also called hAmylin-R; hAmylinR
T2 sequence (looked up) 1: T1 sequence (looked up)
T2 sequence (looked up) 2: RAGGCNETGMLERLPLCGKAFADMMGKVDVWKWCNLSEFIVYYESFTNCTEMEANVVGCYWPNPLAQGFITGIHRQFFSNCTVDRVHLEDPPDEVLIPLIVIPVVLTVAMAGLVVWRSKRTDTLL
Method: The binding assay was performed using scintillation proximity assay (SPA) beads (RPNQ0001) from PerkinElmer and cell membranes from the Amylin 3(a)/CRE-luc cells (as described in Assay (II)) were used. Membranes were prepared in the following way; the cells were rinsed with PBS and incubated with Versene for approximately 5 min before harvesting. The cells were flushed with PBS and the cell-suspension was centrifuged for 5 min at 1000 rpm. Cells were homogenized (ultrathurrax) in a buffer containing 20 mM Na-HEPES and 10 mM EDTA (pH 7.4) and centrifuged at 20.000 rpm for 15 min. The resulting pellet was resuspended, homogenized and centrifuged (20.000 rpm, 15 min) in a buffer containing 20 mM Na-HEPES and 0.1 mM EDTA (pH 7.4, buffer 2). The resulting pellet was resuspended in buffer 2 and protein concentration was measured (BCA protein Assay, Pierce). The homogenate was kept cold during the whole procedure. The membranes were kept at −80° C. until use. The assay was performed in a 384 well Optiplate (PerkinElmer) in a total volume of 40 ul. Membranes were mixed with SPA beads. Final concentration of membranes 35 ng/μL final and SPA beads was 0.05 mg/well. Test-compounds were dissolved in DMSO and further diluted in assay buffer (50 mM Hepes, pH 7.4, 1 mM CaCl2, 5 mM MgCl₂, 0.1% OA and 0.02% Tween20). […] The final mixture was incubated with shaking at 400 rpm for 120 min at 25° C. prior to centrifugation (1500 rpm, 10 min). Samples were analyzed on TopCounter™ (Packard). The IC₅₀ was calculated using (one site binding competition analysis) GraphPad Prism5 as a measure of receptor affinity.

[4] = molecular target: T3, human calcitonin receptor (human, UniProt P30988 25-474); test: SPA competition with 125I-calcitonin on membranes of BHK cells with human calcitonin receptor (Assay VII)
T3 construct: whole, on cells; Assay used cell membranes, not intact cells; also called hCTR; hCT
T3 sequence (looked up): T1 sequence (looked up)
Method: Membranes were prepared in the following way; the cells were rinsed with PBS and incubated with Versene for approximately 5 min before harvesting. The cells were flushed with PBS and the cell-suspension was centrifuged for 5 min at 1000 rpm. Cells were homogenized (Ultrathurrax) in a buffer containing 20 mM Na-HEPES and 10 mM EDTA (pH 7.4) and centrifuged at 20.000 rpm for 15 min. The resulting pellet was resuspended, homogenized and centrifuged (20.000 rpm, 15 min) in a buffer containing 20 mM Na-HEPES and 0.1 mM EDTA (pH 7.4, buffer 2). The resulting pellet was resuspended in buffer 2 and protein concentration was measured (BCA protein Assay, Pierce). The homogenate was kept cold during the whole procedure. The membranes were kept at −80° C. until use. Assay was performed in a 384 well Optiplate (PerkinElmer) in a total volume of 40 ul. Membranes were mixed with SPA beads. Final concentration of membranes 35 ng/μL final and Final concentration of SPA beads was 0.05 mg/well. Test-compounds were dissolved in DMSO and further diluted in assay buffer (50 mM Hepes, pH 7.4, 1 mM CaCl2, 5 mM MgCl₂, 0.1% OA and 0.02% Tween20). […] The final mixture was incubated for 120 min with shaking at 400 rpm at 25° C. prior to centrifugation (1500 rpm, 10 min). Samples were analyzed on TopCounter™ (Packard). The […] was calculated using (one site binding competition analysis) GraphPad Prism5 as a measure of receptor affinity.

IC50 [1]: 0.00257 µM
Ratio hCT/hAmylin binding [2]: 42.2
B1: N^ε1-[2-[2-[2-(19-carboxynonadecanoylamino)ethoxy]ethoxy]acetyl]-[His14,Arg17,Pro21,Pro27]-h-amylin (peptide)
peptide: K([AEEA-C20 diacid])CNTATCATQRLAHFLRHSSPNFGAIPSSTNVGSNTY-NH2
modifications: disulfide 2-7; N-terminus assumed
SMILES: CC[C@H](C)[C@H](NC(=O)[C@H](C)NC(=O)CNC(=O)[C@H](Cc1ccccc1)NC(=O)[C@H](CC(N)=O)NC(=O)[C@@H]1CCCN1C(=O)[C@H](CO)NC(=O)[C@H](CO)NC(=O)[C@H](Cc1c[nH]cn1)NC(=O)[C@H](CCCNC(=N)N)NC(=O)[C@H](CC(C)C)NC(=O)[C@H](Cc1ccccc1)NC(=O)[C@H](Cc1c[nH]cn1)NC(=O)[C@H](C)NC(=O)[C@H](CC(C)C)NC(=O)[C@H](CCCNC(=N)N)NC(=O)[C@H](CCC(N)=O)NC(=O)[C@@H](NC(=O)[C@H](C)NC(=O)[C@@H]1CSSC[C@H](NC(=O)[C@@H](N)CCCCNC(=O)COCCOCCNC(=O)CCCCCCCCCCCCCCCCCCC(=O)O)C(=O)N[C@@H](CC(N)=O)C(=O)N[C@@H]([C@@H](C)O)C(=O)N[C@@H](C)C(=O)N[C@@H]([C@@H](C)O)C(=O)N1)[C@@H](C)O)C(=O)N1CCC[C@H]1C(=O)N[C@@H](CO)C(=O)N[C@@H](CO)C(=O)N[C@H](C(=O)N[C@@H](CC(N)=O)C(=O)N[C@H](C(=O)NCC(=O)N[C@@H](CO)C(=O)N[C@@H](CC(N)=O)C(=O)N[C@H](C(=O)N[C@@H](Cc1ccc(O)cc1)C(N)=O)[C@@H](C)O)C(C)C)[C@@H](C)O
notes: also called compound 90

IC50 [3]: 0.000365 µM
IC50 [4]: 0.112 µM
B2: N^ε1-[(4S)-4-carboxy-4-[[(4S)-4-carboxy-4-(19-carboxynonadecanoylamino)butanoyl]amino]butanoyl]-[D-Asp14,Arg17,Pro21,Pro27,Arg35]-h-amylin (peptide)
peptide: K([γGlu-γGlu-C20 diacid])CNTATCATQRLA[dD]FLRHSSPNFGAIPSSTNVGSRTY-NH2
modifications: disulfide 2-7; N-terminus assumed
SMILES: CC[C@H](C)[C@H](NC(=O)[C@H](C)NC(=O)CNC(=O)[C@H](Cc1ccccc1)NC(=O)[C@H](CC(N)=O)NC(=O)[C@@H]1CCCN1C(=O)[C@H](CO)NC(=O)[C@H](CO)NC(=O)[C@H](Cc1c[nH]cn1)NC(=O)[C@H](CCCNC(=N)N)NC(=O)[C@H](CC(C)C)NC(=O)[C@H](Cc1ccccc1)NC(=O)[C@@H](CC(=O)O)NC(=O)[C@H](C)NC(=O)[C@H](CC(C)C)NC(=O)[C@H](CCCNC(=N)N)NC(=O)[C@H](CCC(N)=O)NC(=O)[C@@H](NC(=O)[C@H](C)NC(=O)[C@@H]1CSSC[C@H](NC(=O)[C@@H](N)CCCCNC(=O)CC[C@H](NC(=O)CC[C@H](NC(=O)CCCCCCCCCCCCCCCCCCC(=O)O)C(=O)O)C(=O)O)C(=O)N[C@@H](CC(N)=O)C(=O)N[C@@H]([C@@H](C)O)C(=O)N[C@@H](C)C(=O)N[C@@H]([C@@H](C)O)C(=O)N1)[C@@H](C)O)C(=O)N1CCC[C@H]1C(=O)N[C@@H](CO)C(=O)N[C@@H](CO)C(=O)N[C@H](C(=O)N[C@@H](CC(N)=O)C(=O)N[C@H](C(=O)NCC(=O)N[C@@H](CO)C(=O)N[C@@H](CCCNC(=N)N)C(=O)N[C@H](C(=O)N[C@@H](Cc1ccc(O)cc1)C(N)=O)[C@@H](C)O)C(C)C)[C@@H](C)O

IC50 [1]: 0.026 µM
Ratio hCT/hAmylin binding [2]: 145
B3: N^ε1-[(4S)-4-carboxy-4-[[(4S)-4-carboxy-4-(19-carboxynonadecanoylamino)butanoyl]amino]butanoyl]-[His14,Arg17,Pro21,Pro27]-h-amylin (peptide)
peptide: K([γGlu-γGlu-C20 diacid])CNTATCATQRLAHFLRHSSPNFGAIPSSTNVGSNTY-NH2
modifications: disulfide 2-7; N-terminus assumed
SMILES: CC[C@H](C)[C@H](NC(=O)[C@H](C)NC(=O)CNC(=O)[C@H](Cc1ccccc1)NC(=O)[C@H](CC(N)=O)NC(=O)[C@@H]1CCCN1C(=O)[C@H](CO)NC(=O)[C@H](CO)NC(=O)[C@H](Cc1c[nH]cn1)NC(=O)[C@H](CCCNC(=N)N)NC(=O)[C@H](CC(C)C)NC(=O)[C@H](Cc1ccccc1)NC(=O)[C@H](Cc1c[nH]cn1)NC(=O)[C@H](C)NC(=O)[C@H](CC(C)C)NC(=O)[C@H](CCCNC(=N)N)NC(=O)[C@H](CCC(N)=O)NC(=O)[C@@H](NC(=O)[C@H](C)NC(=O)[C@@H]1CSSC[C@H](NC(=O)[C@@H](N)CCCCNC(=O)CC[C@H](NC(=O)CC[C@H](NC(=O)CCCCCCCCCCCCCCCCCCC(=O)O)C(=O)O)C(=O)O)C(=O)N[C@@H](CC(N)=O)C(=O)N[C@@H]([C@@H](C)O)C(=O)N[C@@H](C)C(=O)N[C@@H]([C@@H](C)O)C(=O)N1)[C@@H](C)O)C(=O)N1CCC[C@H]1C(=O)N[C@@H](CO)C(=O)N[C@@H](CO)C(=O)N[C@H](C(=O)N[C@@H](CC(N)=O)C(=O)N[C@H](C(=O)NCC(=O)N[C@@H](CO)C(=O)N[C@@H](CC(N)=O)C(=O)N[C@H](C(=O)N[C@@H](Cc1ccc(O)cc1)C(N)=O)[C@@H](C)O)C(C)C)[C@@H](C)O
notes: also called compound 92
